Measured values taken from paper PMC3305447, “A Peptidoglycan Fragment Triggers β-lactam Resistance in Bacillus licheniformis” (PLoS Pathogens, 2012).

Legend:
[1] = molecular target: Staphylococcus aureus MecI repressor (MecI-His) (Staphylococcus aureus ATCC 43300) (UniProt P68261)
[2] = molecular target: Staphylococcus aureus MecI repressor (MecI-His) (Staphylococcus aureus ATCC 43300) (UniProt P68261); assay: native gel or EMSA
[3] = molecular target: Bacillus licheniformis 749/I BlaI repressor (BlaI-His) (Bacillus licheniformis 749/I) (UniProt P06555)
[4] = molecular target: T1, MecI (Staphylococcus aureus, UniProt P68261); assay: agarose-gel EMSA, dissociation of repressor-operator DNA complex; type: binding
T1 construct: full-length with C-terminal His6 (pET22b), recombinant, purified; homodimer; 15N-labelled for NMR
Target sequence in this assay (P68261 1-122): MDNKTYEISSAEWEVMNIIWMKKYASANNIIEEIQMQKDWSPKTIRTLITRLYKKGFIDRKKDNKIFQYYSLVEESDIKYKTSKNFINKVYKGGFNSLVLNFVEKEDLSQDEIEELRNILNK

[5] = molecular target: T1, MecI; assay: NMR titration, 1H-15N SOFAST-HMQC chemical shifts; type: binding

Sequence of Staphylococcus aureus MecI repressor (MecI-His) (Staphylococcus aureus ATCC 43300) (P68261 whole entry): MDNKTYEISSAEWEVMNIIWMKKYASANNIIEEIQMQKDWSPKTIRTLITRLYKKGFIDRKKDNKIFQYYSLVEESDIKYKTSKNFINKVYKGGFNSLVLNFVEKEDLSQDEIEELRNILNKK
Sequence of Bacillus licheniformis 749/I BlaI repressor (BlaI-His) (Bacillus licheniformis 749/I) (P06555 whole entry): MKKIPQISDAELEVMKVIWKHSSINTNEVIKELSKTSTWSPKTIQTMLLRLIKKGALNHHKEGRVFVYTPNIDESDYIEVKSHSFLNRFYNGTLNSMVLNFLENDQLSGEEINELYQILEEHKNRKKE

γ-D-Glu-L-Lys dipeptide
concentration of dipeptide allowing the displacement of 50% of bound MecI from its nucleic operator (agarose gel EMSA titration, 10 to 50 nmol dipeptide in 20 µl) [1]: 2 mM
Kd [2]: 2 mM

γ-D-Glu-m-A2pm dipeptide
concentration of dipeptide allowing the displacement of 50% of bound BlaI from its nucleic operator (agarose gel EMSA titration, 10 to 50 nmol dipeptide in 20 µl) [3]: 2 mM

NCCCC[C@H](NC(=O)CC[C@@H](N)C(=O)O)C(=O)O [dipeptide 2, γ-D-Glu-L-Lys]
IC50 [4]: ~2 mM
Kd [5]: 8 ± 2 mM
